Laboratory results taken from patent US20150203577A1 (Chugai, published 2015).

T1: mouse FcγRIII (mouse, UniProt P08508 31-215)
T1 construct: also called mFcγRIII; mFcgRIII
T1 chain: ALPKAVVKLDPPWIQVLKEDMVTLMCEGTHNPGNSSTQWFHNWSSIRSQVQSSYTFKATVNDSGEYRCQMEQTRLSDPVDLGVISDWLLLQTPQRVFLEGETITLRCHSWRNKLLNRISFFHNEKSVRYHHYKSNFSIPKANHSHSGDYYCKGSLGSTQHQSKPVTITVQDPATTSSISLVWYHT

T2: mouse FcγRII (mouse, UniProt P08101 30-210)
T2 construct: also called mFcγRII; mFcgRII
T2 sequence: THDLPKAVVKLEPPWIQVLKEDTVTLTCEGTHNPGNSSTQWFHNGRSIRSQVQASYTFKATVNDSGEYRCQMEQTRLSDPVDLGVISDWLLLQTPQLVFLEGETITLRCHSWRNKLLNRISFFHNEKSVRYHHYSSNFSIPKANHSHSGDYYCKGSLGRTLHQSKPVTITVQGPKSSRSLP

T3: mouse FcγRIII extracellular domain with C-terminal His tag (mouse, UniProt P08508 31-215)
T3 construct: Made on the basis of NCBI NP-034318.2; also called mFcγRIII; mFcgRIII
T3 chain: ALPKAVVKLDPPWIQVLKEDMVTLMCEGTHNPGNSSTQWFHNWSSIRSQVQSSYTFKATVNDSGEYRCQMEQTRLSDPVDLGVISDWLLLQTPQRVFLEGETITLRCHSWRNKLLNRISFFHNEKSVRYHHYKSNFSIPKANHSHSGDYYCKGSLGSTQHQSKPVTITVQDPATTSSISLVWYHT

T4: mouse FcγRII extracellular domain with C-terminal His tag (mouse, UniProt P08101 30-210)
T4 construct: Made on the basis of NCBI NP-034317.1; also called mFcγRII; mFcgRII
T4 sequence: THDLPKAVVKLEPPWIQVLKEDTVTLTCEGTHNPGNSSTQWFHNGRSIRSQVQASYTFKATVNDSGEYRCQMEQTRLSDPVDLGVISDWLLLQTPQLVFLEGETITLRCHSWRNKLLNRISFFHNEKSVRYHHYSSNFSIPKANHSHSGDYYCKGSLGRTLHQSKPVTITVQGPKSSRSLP


Columns and labels:
mouse FcγRIII = biological target: T1, mouse FcγRIII; assay: SPR Biacore 4000, KD ratio
Procedure: (§1) Each altered antibody was analyzed for its interaction with each Fcγ receptor prepared above using Biacore T100 (GE Healthcare Japan Corp.), Biacore T200 (GE Healthcare Japan Corp.), Biacore A100, or Biacore 4000. The running buffer used was HBS-EP+ (GE Healthcare Japan Corp.). The assay temperature was set to 25° C. The sensor chips used were chips prepared by immobilizing Protein L (ACTIGEN or BioVision) onto Series S Sensor Chip CM5 (GE Healthcare Japan Corp.) or Series S Sensor Chip CM4 (GE Healthcare Japan Corp.) by the amine coupling method.
(§2) In order to calculate the KD value of each altered antibody for FcγR, kinetic analysis was conducted according to the following method: first, the antibody of interest was captured onto any of these chips and allowed to interact with mFcγR diluted with a running buffer. For the obtained sensorgram, the assay results were globally fit into the 1:1 Langmuir binding model using Biacore Evaluation Software to calculate an association rate constant ka (L/mol/s) and a dissociation rate constant kd (1/s). From these values, the dissociation constant KD (mol/L) was calculated.

mouse FcγRII = biological target: T2, mouse FcγRII; assay: SPR Biacore 4000, KD ratio
Procedure: as §1, §2

[1] = biological target: T3, mouse FcγRIII extracellular domain with …; assay: SPR Biacore T200
Procedure: as §1, §2

[2] = biological target: T4, mouse FcγRII extracellular domain with …; assay: SPR Biacore T200
Procedure: as §1, §2

Row | relative mFcγRIII-binding activity (mIgG1 = 1) (mouse FcγRIII) [fold] | relative mFcγRII-binding activity (mIgG1 = 1) (mouse FcγRII) [fold] | relative mFcγRIII-binding activity (mIgG1 = 1) [1] | relative mFcγRII-binding activity (mIgG1 = 1) [2] | Binder
1 | 2.84 | 7.97 | – | – | MB020 (antibody, mouse IgG1, kappa, copies: 2 + 2) heavy: QVQLQESGPGLVKPSETLSLTCAVSGHSISHDHAWSWVRQPPGEGLEWIGFISYSGITNYNPSLQGRVTISRDNSKNTLYLQMNSLRAEDTAVYYCARSLARTTAMDYWGEGTLVTVSSAKTTPPSVYPLAPGSAAQTNSMVTLGCLVKGYFPEPVTVTWNSGSLSSGVHTFPAVLQSDLYTLSSSVTVPSSTWPSETVTCNVAHPASSTKVDKKIVPRDCGCKPCICTDPEVSSVFIFPPKPKDVLTITLTPKVTCVVVDISKDDPEVQFSWFVDDVEVHTAQTQPREEQFNSTFRSVSELPIMHQDWLNGKEFKCRVNSAAFPAPIEKTISKTKGRPKAPQVYTIPPPKEQMAKDKVSLTCMITDFFPEDITVEWQWNGQPAENYKNTQPIMDTDGSYFVYSKLNVQKSNWEAGNTFTCSVLHEGLHNHHTEKSLSHSPGK light: not shown
2 | 3.58 | 8.52 | – | – | MB021 (antibody, mouse IgG1, kappa, copies: 2 + 2) heavy: QVQLQESGPGLVKPSETLSLTCAVSGHSISHDHAWSWVRQPPGEGLEWIGFISYSGITNYNPSLQGRVTISRDNSKNTLYLQMNSLRAEDTAVYYCARSLARTTAMDYWGEGTLVTVSSAKTTPPSVYPLAPGSAAQTNSMVTLGCLVKGYFPEPVTVTWNSGSLSSGVHTFPAVLQSDLYTLSSSVTVPSSTWPSETVTCNVAHPASSTKVDKKIVPRDCGCKPCICTEPEVSSVFIFPPKPKDVLTITLTPKVTCVVVDISKDDPEVQFSWFVDDVEVHTAQTQPREEQFNSTFRSVSELPIMHQDWLNGKEFKCRVNSAAFPAPIEKTISKTKGRPKAPQVYTIPPPKEQMAKDKVSLTCMITDFFPEDITVEWQWNGQPAENYKNTQPIMDTDGSYFVYSKLNVQKSNWEAGNTFTCSVLHEGLHNHHTEKSLSHSPGK light: not shown
3 | 1 | 1.15 | – | – | MB016 (antibody, mouse IgG1, kappa, copies: 2 + 2) heavy: QVQLQESGPGLVKPSETLSLTCAVSGHSISHDHAWSWVRQPPGEGLEWIGFISYSGITNYNPSLQGRVTISRDNSKNTLYLQMNSLRAEDTAVYYCARSLARTTAMDYWGEGTLVTVSSAKTTPPSVYPLAPGSAAQTNSMVTLGCLVKGYFPEPVTVTWNSGSLSSGVHTFPAVLQSDLYTLSSSVTVPSSTWPSETVTCNVAHPASSTKVDKKIVPRDCGCKPCICVVPEVSSVFIFPPKPKDVLTITLTPKVTCVVVDISKDDPEVQFSWFVDDVEVHTAQTQPREEQFNSTFRSVSELPIMHQDWLNGKEFKCRVNSAAFPAPIEKTISKTKGRPKAPQVYTIPPPKEQMAKDKVSLTCMITDFFPEDITVEWQWNGQPAENYKNTQPIMDTDGSYFVYSKLNVQKSNWEAGNTFTCSVLHEGLHNHHTEKSLSHSPGK light: not shown
4 | 1.44 | 2.7 | – | – | MB019 (antibody, mouse IgG1, kappa, copies: 2 + 2) heavy: QVQLQESGPGLVKPSETLSLTCAVSGHSISHDHAWSWVRQPPGEGLEWIGFISYSGITNYNPSLQGRVTISRDNSKNTLYLQMNSLRAEDTAVYYCARSLARTTAMDYWGEGTLVTVSSAKTTPPSVYPLAPGSAAQTNSMVTLGCLVKGYFPEPVTVTWNSGSLSSGVHTFPAVLQSDLYTLSSSVTVPSSTWPSETVTCNVAHPASSTKVDKKIVPRDCGCKPCICTAPEVSSVFIFPPKPKDVLTITLTPKVTCVVVDISKDDPEVQFSWFVDDVEVHTAQTQPREEQFNSTFRSVSELPIMHQDWLNGKEFKCRVNSAAFPAPIEKTISKTKGRPKAPQVYTIPPPKEQMAKDKVSLTCMITDFFPEDITVEWQWNGQPAENYKNTQPIMDTDGSYFVYSKLNVQKSNWEAGNTFTCSVLHEGLHNHHTEKSLSHSPGK light: not shown

Continued, binder first:

Row | Binder | relative mFcγRIII-binding activity (mIgG1 = 1) (mouse FcγRIII) [fold] | relative mFcγRII-binding activity (mIgG1 = 1) (mouse FcγRII) [fold] | relative mFcγRIII-binding activity (mIgG1 = 1) [1] | relative mFcγRII-binding activity (mIgG1 = 1) [2]
5 | MB002 (antibody, mouse IgG1, kappa, copies: 2 + 2) heavy: QVQLQESGPGLVKPSETLSLTCAVSGHSISHDHAWSWVRQPPGEGLEWIGFISYSGITNYNPSLQGRVTISRDNSKNTLYLQMNSLRAEDTAVYYCARSLARTTAMDYWGEGTLVTVSSAKTTPPSVYPLAPGSAAQTNSMVTLGCLVKGYFPEPVTVTWNSGSLSSGVHTFPAVLQSDLYTLSSSVTVPSSTWPSETVTCNVAHPASSTKVDKKIVPRDCGCKPCICDVPEVSSVFIFPPKPKDVLTITLTPKVTCVVVDISKDDPEVQFSWFVDDVEVHTAQTQPREEQFNSTFRSVSELPIMHQDWLNGKEFKCRVNSAAFPAPIEKTISKTKGRPKAPQVYTIPPPKEQMAKDKVSLTCMITDFFPEDITVEWQWNGQPAENYKNTQPIMDTDGSYFVYSKLNVQKSNWEAGNTFTCSVLHEGLHNHHTEKSLSHSPGK light: not shown | 1.47 | 2.72 | – | –
6 | H237-MB523/MRAL-k0 (antibody, mouse IgG1, kappa, copies: 2 + 2) heavy: QVQLQESGPGLVKPSETLSLTCAVSGHSISHDHAWSWVRQPPGEGLEWIGFISYSGITNYNPSLQGRVTISRDNSKNTLYLQMNSLRAEDTAVYYCARSLARTTAMDYWGEGTLVTVSSAKTTPPSVYPLAPGSAAQTNSMVTLGCLVKGYFPEPVTVTWNSGSLSSGVHTFPAVLQSDLYTLSSSVTVPSSTWPSETVTCNVAHPASSTKVDKKIVPRDCGCKPCICIPAEVEWVFIFPPKPKDVLTITLTPKVTCVVVDISKDDPEVQFSWFVDDVEVHTAQTQPREEQFNSTFRSVSELPIMHQDWLNGKEFKCRVNSAAFPAPIEKTISKTKGRPKAPQVYTIPPPKEQMAKDKVSLTCMITDFFPEDITVEWQWNGQPAENYKNTQPIMDTDGSYFVYSKLNVQKSNWEAGNTFTCSVLHEGLHNHHTEKSLSHSPGK light: not shown | – | – | 0.1 | 0.5
7 | H237-MB525/MRAL-k0 (antibody, mouse IgG1, kappa, copies: 2 + 2) heavy: QVQLQESGPGLVKPSETLSLTCAVSGHSISHDHAWSWVRQPPGEGLEWIGFISYSGITNYNPSLQGRVTISRDNSKNTLYLQMNSLRAEDTAVYYCARSLARTTAMDYWGEGTLVTVSSAKTTPPSVYPLAPGSAAQTNSMVTLGCLVKGYFPEPVTVTWNSGSLSSGVHTFPAVLQSDLYTLSSSVTVPSSTWPSETVTCNVAHPASSTKVDKKIVPRDCGCKPCICQPNEVEWVFIFPPKPKDVLTITLTPKVTCVVVDISKDDPEVQFSWFVDDVEVHTAQTQPREEQFNSTFRSVSELPIMHQDWLNGKEFKCRVNSAAFPAPIEKTISKTKGRPKAPQVYTIPPPKEQMAKDKVSLTCMITDFFPEDITVEWQWNGQPAENYKNTQPIMDTDGSYFVYSKLNVQKSNWEAGNTFTCSVLHEGLHNHHTEKSLSHSPGK light: not shown | – | – | 0.3 | 2.8
8 | MB003 (antibody, mouse IgG1, kappa, copies: 2 + 2) heavy: QVQLQESGPGLVKPSETLSLTCAVSGHSISHDHAWSWVRQPPGEGLEWIGFISYSGITNYNPSLQGRVTISRDNSKNTLYLQMNSLRAEDTAVYYCARSLARTTAMDYWGEGTLVTVSSAKTTPPSVYPLAPGSAAQTNSMVTLGCLVKGYFPEPVTVTWNSGSLSSGVHTFPAVLQSDLYTLSSSVTVPSSTWPSETVTCNVAHPASSTKVDKKIVPRDCGCKPCICEVPEVSSVFIFPPKPKDVLTITLTPKVTCVVVDISKDDPEVQFSWFVDDVEVHTAQTQPREEQFNSTFRSVSELPIMHQDWLNGKEFKCRVNSAAFPAPIEKTISKTKGRPKAPQVYTIPPPKEQMAKDKVSLTCMITDFFPEDITVEWQWNGQPAENYKNTQPIMDTDGSYFVYSKLNVQKSNWEAGNTFTCSVLHEGLHNHHTEKSLSHSPGK light: not shown | 1.51 | 5.06 | – | –
9 | H237-MB522/MRAL-k0 (antibody, mouse IgG1, kappa, copies: 2 + 2) heavy: QVQLQESGPGLVKPSETLSLTCAVSGHSISHDHAWSWVRQPPGEGLEWIGFISYSGITNYNPSLQGRVTISRDNSKNTLYLQMNSLRAEDTAVYYCARSLARTTAMDYWGEGTLVTVSSAKTTPPSVYPLAPGSAAQTNSMVTLGCLVKGYFPEPVTVTWNSGSLSSGVHTFPAVLQSDLYTLSSSVTVPSSTWPSETVTCNVAHPASSTKVDKKIVPRDCGCKPCICEPAEVEWVFIFPPKPKDVLTITLTPKVTCVVVDISKDDPEVQFSWFVDDVEVHTAQTQPREEQFNSTFRSVSELPIMHQDWLNGKEFKCRVNSAAFPAPIEKTISKTKGRPKAPQVYTIPPPKEQMAKDKVSLTCMITDFFPEDITVEWQWNGQPAENYKNTQPIMDTDGSYFVYSKLNVQKSNWEAGNTFTCSVLHEGLHNHHTEKSLSHSPGK light: not shown | – | – | 0.1 | 1.5
10 | MB013 (antibody, mouse IgG1, kappa, copies: 2 + 2) heavy: QVQLQESGPGLVKPSETLSLTCAVSGHSISHDHAWSWVRQPPGEGLEWIGFISYSGITNYNPSLQGRVTISRDNSKNTLYLQMNSLRAEDTAVYYCARSLARTTAMDYWGEGTLVTVSSAKTTPPSVYPLAPGSAAQTNSMVTLGCLVKGYFPEPVTVTWNSGSLSSGVHTFPAVLQSDLYTLSSSVTVPSSTWPSETVTCNVAHPASSTKVDKKIVPRDCGCKPCICQVPEVSSVFIFPPKPKDVLTITLTPKVTCVVVDISKDDPEVQFSWFVDDVEVHTAQTQPREEQFNSTFRSVSELPIMHQDWLNGKEFKCRVNSAAFPAPIEKTISKTKGRPKAPQVYTIPPPKEQMAKDKVSLTCMITDFFPEDITVEWQWNGQPAENYKNTQPIMDTDGSYFVYSKLNVQKSNWEAGNTFTCSVLHEGLHNHHTEKSLSHSPGK light: not shown | 1.07 | 1.2 | – | –
